Experimental data reported in PMC3506534, “LL-37 Induces Polymerization and Bundling of Actin and Affects Actin Structure” (PLoS ONE, 2012).

Target: rabbit skeletal muscle α-actin (rabbit) (UniProt P68135)

DNase1, sequence (P00639 23-282): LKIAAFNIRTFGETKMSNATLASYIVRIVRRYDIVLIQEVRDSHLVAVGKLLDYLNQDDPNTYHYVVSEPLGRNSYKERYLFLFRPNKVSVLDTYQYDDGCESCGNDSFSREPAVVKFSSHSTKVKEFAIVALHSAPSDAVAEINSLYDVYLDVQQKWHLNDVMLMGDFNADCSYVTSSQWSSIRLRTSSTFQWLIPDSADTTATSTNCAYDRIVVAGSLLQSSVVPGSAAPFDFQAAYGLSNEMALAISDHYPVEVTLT

disappearance of Mg-F-actin bundles (bundled by 9 µM LL-37) and depolymerization of the filaments after 6 µM DNase1 (low and high speed sedimentation): 100%
Substance: DNase1 (from UniProt P00639 23-282) (enzyme)
